Key:
[1] = target: human-CD45RO-ECD-His (human) (UniProt P08575); experiment: ELISA, human-CD45RO-ECD-His-coated plates
[2] = target: human-CD45RO-ECD-His (human) (UniProt P08575); experiment: SPR, captured human-CD45RO-ECD-His, 1:1 binding; row label printed 'Clone 023' a second time, taken as clone 028 by the order in paragraph 382
[3] = target: human-CD45RO-ECD-His (human) (UniProt P08575); experiment: SPR, captured human-CD45RO-ECD-His, 1:1 binding

B1: anti-CD45 antibody clone 028 (antibody, V domains shown)
VH: QVQLQQSGAELARPGASVKMSCKASGYTFTFYAILWVKQMPGQGLEWIGFINPSSGYTSYNQKFKDKATLTADKSSSTAYMQLSSLTSEDSAVYYCARDYGLDYWGQGTTLAVSS
VL: DIVMTQAAPSVPVTPGESVSISCRSSKSLLHSNGNTYLYWFLQRPGQSPQLLIYRMSNLASGVPDRFSGSGSGTAFTLGISRVEAGDVGVYYCMQHLEYPFTFGSGTKLEIK
- EC50 [1]: 0.0319 nM
- Kd [2]: 39.9 nM
- koff [2]: 0.000591 s⁻¹
- kon [2]: 14800 M⁻¹ s⁻¹

B2: anti-CD45 antibody clone 031 (antibody, V domains shown)
VH: DVQLVESGGGLVQPGGSRKLSCAASGFTFSSFGMHWVRQAPEKGLEWVAYINSGSTTFYYADTVKGRFTISRDNPKNTLFLQMTSLGSEDTAMYYCARSATATWTMDYWGQGTSVTVSS
VL: NIMMTQSPSSLAVSAGEKVTMSCKSSQSVFVSSNQKNYLAWYQQKPGQSPKLLIYWASTRESAVPDRFTGSGSGTDFTLTIGSVQAEDLAVYYCHQYLSSWTFGGGTKLEIK
- EC50 [1]: 0.139 nM
- Kd [3]: 79.5 nM
- koff [3]: 0.000335 s⁻¹
- kon [3]: 4220 M⁻¹ s⁻¹

B3: anti-CD45 antibody clone 042 (antibody, V domains shown)
VH: EVQLQQSGAELVKPGASVKLSCTASGFNIKDTFMHWVKLRPEQGLEWIGRIDPANGYTKYDPRFQGKATIIADTSSNTAYLQLSSLTSEDTAVYYCASGEYYALDYWGQGTSVTVSS
VL: DIVLTQSPASLTVSLGQRATISCRASKSVSTSGYSYMHWYQQKPGQPPKLLIYLASNLESGVPARFSGSGSGTDFTLNIHPVEEEDAATYYCQHNRELPYTFGGGTKLEIK
- EC50 [1]: 0.144 nM

B4: anti-CD45 antibody clone 027 (antibody, V domains shown)
VH: QVQLQQSAPELARPGASVRMSCKASGYTFTTYTMNWLTQRPGQGLEWIGYINPSSGYTEYNQKFKDKTSLTADTSSSTAYMQLSSLTSEHSAVYYCARASGYSSWFAYWGQGTLVTVSA
VL: NIVMTQTPKFLLVSAGDRVTITCKASQSVNNDVGWYQQKPGQSPKLLIYYASNRYTGVPDRFTGSGYGTDFTFTISTVQAEDLAVYFCQQDYNSPLTFGAGTKLELK
- EC50 [1]: 0.0734 nM
- Kd [3]: 3.72 nM
- koff [3]: 0.000282 s⁻¹
- kon [3]: 75800 M⁻¹ s⁻¹

From patent US20250320294A1
